Legend:
host DCs = assay: In vivo DC emigration from FITC painted scaffolds to inguinal lymph nodes; parameters: species or system C57BL/6J mice; conditions: mouse
Description: Blank scaffolds and scaffolds containing GM-CSF with or without 10 μg PEI-ODN control (5′-tcc atg agc ttc ctg agc tt-3′) (SEQ ID NO: 6) or 10 μg PEI-CpG-ODN condensate loaded scaffolds were implanted into subcutaneous pockets on the back of 7-9 week old male C57BL/6J mice. For histological examination scaffolds were excised and fixed in Z-fix solution, embedded in paraffin, and stained with hematoxylin and eosin. To analyze DC recruitment, scaffolds were excised and the ingrown tissue was digested into single cell suspensions using a collagenase solution (Worthingtion, 250 U/ml) that was agitated at 37° C. for 45 minutes. The cell suspensions were then poured through a 40 μm cell strainer to isolate cells from scaffold particles and the cells were pelleted and washed with cold PBS and counted using a Z2 coulter counter (Beckman Coulter). The resultant cell populations were then stained with primary antibodies (BD Pharmingen, San Diego, Calif.) conjugated to fluorescent markers to allow for analysis by flow cytometry. […] Cells were gated according to positive FITC, APC and PE using isotype controls, and the percentage of cells staining positive for each surface antigen was recorded. […]

B16-F10 tumors = assay: Example 7: tumor infiltrating leukocyte (TIL) characterization; parameters: species or system C57BL/6J mice; conditions: mouse, in vivo
Description: On the indicated days, B16-F10 tumors were removed from mice, and digested in 1 mg/mL collagenase II (250 U/ml) (Worthington, Lakewood, N.J.) and 0.1 mg/mL DNase for 1 hour at 37° C. Dissociated cells were filtered through a 40-μm filter, and directly stained with antibodies for phenotype characterization by fluorescence-activated cell sorting (FACS) analysis. APC-anti-CD8 and PE-Cy7-anti CD3 were used to identify T cells isolated from the B16F10 tumors. These TILs were also costained with FITC-anti-IFNγ, and PE-anti-CD107a. All antibodies were obtained from eBioscience, San Diego, Calif.

[1] = system: bone marrow derived dendritic cells; assay: Example 8: transwell chemotaxis and chemokinesis of bone marrow derived DCs; assay type: cell-based, C57BL/6 mice; conditions: 12 h
Description: Primary bone-marrow-derived dendritic cells (BMDCs) were flushed from the femurs of C57BL/6 mice and cultured in 100-mm bacteriological petri dishes (Falcon number 1029/Becton Dickinson). Cell culture medium RPMI-1640 (R10) (Sigma) was supplemented with 1% Penicillin-Streptomycin (Invitrogen), 2 mM 1-Glutamine (Invitrogen), 50 μM 2-mercaptoethanol (Sigma) and 10% heat-inactivated fetal bovine serum (FBS, Invitrogen). At day 0, bone marrow leukocytes were seeded at 2×10^6 cells per 100-mm dish in 10 ml R10 medium containing 20 ng/nil granulocyte-macrophage colony-stimulating factor (GM-CSF) (Peprotech). At day 3, another 10 ml R10 medium containing 20 ng/mL GM-CSF was added. to the plates. At days 6 and 8, half of the culture supernatant was collected and centrifuged, the cell pellet was resuspended in 10 ml fresh R10 containing 20 ng/mL GM-CSF, and placed back into the original plate. The non-adherent cell population in the culture supernatant was used between days 8 and 12 for all the experiments.
Transwell migration studies were performed by plating bone marrow derived dendritic cells in the top well of 6.5 mm transwell dishes (Costar, Cambridge, Mass.) with a pore size of 5 μm. The chemotactic effects of GM-CSF, FL (Flt3), and CCL20 on the migration of BMDCs was assessed by placing 500 ng/ml of recombinant murine GM-CSF, FL or CCL20 (Peprotech, Rocky Hill, N.J.) in the bottom wells and 3×10^5 DCs in the top wells. For chemokinesis studies, the concentration of cytokine in each compartment was equal at 500 ng/ml and 3×10^5 DCs were added to the top wells. The number of cells that migrated from the top well to the bottom well through the porous membrane was counted at the end of 12 h to quantify migration. Cells that had migrated to the bottom well were collected by treatment with 0.25% trypsin-0.03% ethylenediaminetetraacetic acid (EDTA, Invitrogen) and counted with a Z2 coulter counter (Beckman Coulter, Inc).

IL-12p70 and IFN-γ = conditions: tumor lysate and CpG-ODN
Description: To determine the in vivo IL-12p70 and IFN-γ concentration at the matrix implant site, adjacent tissue was excised and digested with tissue protein extraction reagent at Day 10 after implantation (Pierce). After centrifugation, the concentrations of IL-12 and IFN-γ, in the supernatant were then analyzed with ELISA (R&D systems), according to the manufacturer's instructions. To determine the generation of TRP-2-specific cytotoxic T lymphocytes, single cell suspensions were prepared at Day 10 from the spleens of mice immunized with PLG vaccines. These cells were initially stained with PE-H-2Kb/TRP2 pentamers (Sigma Aldrich), and subsequently stained with FITC-anti-CD8 and PE-CY7 CD3 mAb (mAb (BD Pharmingen, San Diego) before being analyzed using flow cytometry.

Row | Molecule | increase in number of DCs recruited to matrices and subsequently dispersed to the lymph nodes (host DCs) [fold] | increase in IFNγ(+), CD107a(+) TILs in comparison to controls (B16-F10 tumors) | DC chemotaxis, migration higher than control condition ([1]; 500 ng/ml in bottom wells) | DC chemokinesis, increase in number of migrated cells ([1]; homogenous cytokine 500 ng/ml) [%] | increase in local concentration of IFN-γ over control scaffolds (IL-12p70 and IFN-γ) [fold] | increase in local concentration of IL-12 over control scaffolds (IL-12p70 and IFN-γ)
1 | CpG-ODN 1826 | 6 | approximately 6.1 fold | – | – | – | –
2 | granulocyte macrophage colony stimulating factor (protein, UniProt P01587 18-141, looked up, cytokine encapsulated in and released from PLG matrices to recruit DCs) Granulocyte-macrophage …: APTRSPITVTRPWKHVEAIKEALNLLDDMPVTLNEEVEVVSNEFSFKKLTCVQTRLKIFEQGLRGNFTKLKGALNMTASYYQTYCPPTPETDCETQVTTYADFIDSLKTFLTDIPFECKKPGQK | – | – | approximately 50% | 50 | ~6 | approximately 3 fold
